Assay [1] deals with T1, Human TROP2 Protein, His Tag (Acro Biosystems) (human, UniProt P09758 27-274).
T1 construct: Bought protein; also called TACSTD2; not shown: His tag
T1 sequence: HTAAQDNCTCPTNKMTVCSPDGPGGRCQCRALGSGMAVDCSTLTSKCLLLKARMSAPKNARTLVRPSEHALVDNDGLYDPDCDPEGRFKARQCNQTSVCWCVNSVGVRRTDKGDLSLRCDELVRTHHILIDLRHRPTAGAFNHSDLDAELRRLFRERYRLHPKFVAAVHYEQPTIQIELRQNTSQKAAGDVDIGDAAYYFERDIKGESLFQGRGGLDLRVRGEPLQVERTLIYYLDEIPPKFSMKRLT
The experiment in a line: BLI (Octet). A general note: BLI is a label-free optical method that tracks binding on a fibre tip over time.

Assay [2] addresses T2, Human TROP2 Protein, His Tag, Acro Biosystems (human, UniProt P09758 27-274).
T2 construct: Bought protein; not shown: His tag
T2 sequence: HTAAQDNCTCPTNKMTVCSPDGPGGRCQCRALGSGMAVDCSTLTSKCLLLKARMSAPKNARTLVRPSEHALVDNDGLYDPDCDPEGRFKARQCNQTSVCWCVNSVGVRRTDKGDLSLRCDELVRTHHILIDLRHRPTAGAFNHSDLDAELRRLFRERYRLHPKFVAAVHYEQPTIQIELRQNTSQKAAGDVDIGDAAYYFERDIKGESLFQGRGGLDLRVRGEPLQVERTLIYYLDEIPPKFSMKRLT
The experiment in a line: Octet (BLI).

The target of assay [3] is T3, TROP2 on TROP2-positive NCI-H1975 cells (human, UniProt P09758 27-323).
T3 sequence: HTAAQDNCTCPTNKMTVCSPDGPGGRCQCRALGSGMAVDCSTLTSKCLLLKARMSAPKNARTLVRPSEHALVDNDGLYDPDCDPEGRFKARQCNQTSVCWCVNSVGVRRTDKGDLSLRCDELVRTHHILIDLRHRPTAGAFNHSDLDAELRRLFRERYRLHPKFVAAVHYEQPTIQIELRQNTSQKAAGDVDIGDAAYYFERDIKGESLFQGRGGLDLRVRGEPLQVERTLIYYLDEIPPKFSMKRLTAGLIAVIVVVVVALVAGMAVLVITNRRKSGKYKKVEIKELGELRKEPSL
The experiment in a line: cell-based or functional assay.

Assay [4] deals with T3, TROP2 on TROP2-positive NCI-H1975 cells. The experiment in a line: cell-based or functional assay. The source holds these as a separate data set.
The target is the same in assay [5]. The experiment in a line: binding to NCI-H1975 cells at pH 6.4, maximal MFI.
For assay [6], the target named is T4, Human TROP2 Protein, His Tag (Acro Biosystems) (human, UniProt P09758 27-274).
T4 construct: also called TACSTD2; not shown: His tag
T4 sequence (looked up): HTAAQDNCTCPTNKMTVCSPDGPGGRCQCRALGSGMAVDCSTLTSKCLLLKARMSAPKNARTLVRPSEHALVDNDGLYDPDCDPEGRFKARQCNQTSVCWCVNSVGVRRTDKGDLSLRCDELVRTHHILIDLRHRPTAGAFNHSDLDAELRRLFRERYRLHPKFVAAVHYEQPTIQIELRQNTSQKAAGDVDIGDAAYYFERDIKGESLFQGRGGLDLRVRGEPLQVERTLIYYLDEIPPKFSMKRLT
The experiment in a line: BLI (Octet) [1/2].

Assay [7] deals with T5, Human TROP2 Protein, His Tag (human, UniProt P09758 27-274).
T5 construct: Bought protein; also called TACSTD2; not shown: His tag
T5 sequence (looked up): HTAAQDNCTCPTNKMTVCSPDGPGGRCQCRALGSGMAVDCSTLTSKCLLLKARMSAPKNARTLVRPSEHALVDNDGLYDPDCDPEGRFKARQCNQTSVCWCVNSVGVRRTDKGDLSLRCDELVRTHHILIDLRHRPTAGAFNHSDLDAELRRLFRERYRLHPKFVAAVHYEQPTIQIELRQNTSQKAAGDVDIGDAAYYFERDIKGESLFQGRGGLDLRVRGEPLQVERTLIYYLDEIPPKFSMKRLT
The assay is described as follows: BLI (Octet), IgG on anti-human Fc sensor, 50 nM human TROP2-His; legend: 1 = pH dependent.

The Kd is a measure of binding affinity in units of concentration. Lower therefore signals higher affinity.

B1: MYT12408 (hu7E6SVG variant, HCV substitutions at 33, 34) (antibody, V domains shown)
VH: QVQLQESGPGLVKPSETLSLTCTVSGGSISSYHHHWIRQPPGKGLEWIGVIWTSGVTDYNSALMGRVTISVDTSKNQFSLKLSSVTAADTAVYYCARDGDYDRYTMDYWGQGTLVTVSS
VL: DIVMTQSPDSLAVSLGERATINCRASKSVSTSGYSYMHWYQQKPGQPPKLLIYLASNLESGVPDRFSGSGSGTDFTLTISSLQAEDVAVYYCQHSRELPYTFGQGTKLEIK
Consider B1, for which, in assay [1], the binding result is given as “binds”.

B2: MYT12409 (hu7E6SVG variant, HCV substitutions at 33, 51) (antibody, V domains shown)
VH: QVQLQESGPGLVKPSETLSLTCTVSGGSISSYHVHWIRQPPGKGLEWIGVHWTSGVTDYNSALMGRVTISVDTSKNQFSLKLSSVTAADTAVYYCARDGDYDRYTMDYWGQGTLVTVSS
VL: DIVMTQSPDSLAVSLGERATINCRASKSVSTSGYSYMHWYQQKPGQPPKLLIYLASNLESGVPDRFSGSGSGTDFTLTISSLQAEDVAVYYCQHSRELPYTFGQGTKLEIK
As for B2, the binding result in assay [1] is given as “binds”.

B3: MYT13425 (antibody, human IgG1, V domains shown)
VH: QVQLQQSGSELKKPGASVKVSCKASGYTFTNYGMNWVKQAPGQGLKWMGWINTYTGEPTYTHDFKGRFAFSLDTSVSTAYLQISSLKADDTAVYFCARGGFGSSYWYFDVWGQGSLVTVSS
VL: DIQLTQSPSSLSASVGDRVSITCKASQDVHIAVAWYQQKPGKAPKLLIYSHSYRYTGVPDRFSGSGSGTDFTLTISSLQPEDFAVYYCQQHYHTPLTFGAGTKVEIK
notes: also called sacituzumab HC-LC pairing variant; Sacituzumab pH variant
In turn, B3 registered a Kd in assay [2] of 3.99 nM. For the same molecule, in assay [3], the “FOW H1975 (10 nM)” value was 1.94 fold over parent antibody. The “Cytotox Fold over datopotamab (FOD)” value in assay [4] amounted to 1.39 fold over datopotamab. Also, the “Max MFI (@ pH 6.4)-H1975” value in assay [5] stood at 11200 MFI.

B4: MYT11635 (WT datopotamab variable regions) (antibody, human IgG1, V domains shown)
VH: QVQLVQSGAEVKKPGASVKVSCKASGYTFTTAGMQWVRQAPGQGLEWMGWINTHSGVPKYAEDFKGRVTISADTSTSTAYLQLSSLKSEDTAVYYCARSGFGSSYWYFDVWGQGTLVTVSS
VL: DIQMTQSPSSLSASVGDRVTITCKASQDVSTAVAWYQQKPGKAPKLLIYSASYRYTGVPSRFSGSGSGTDFTLTISSLQPEDFAVYYCQQHYITPLTFGQGTKLEIK
notes: Human IgG1 heavy chain constant domain and Kappa light chain constant domain; also called Datopotamab WT
In the case of B4, in assay [2], binding was put at a Kd of 1.25 nM. The “Cytotox Fold over datopotamab (FOD)” value in assay [4] amounted to 1 fold over datopotamab. Also, the “Max MFI (@ pH 6.4)-H1975” value in assay [5] stood at 25900 MFI.

B5: MYT13251 (antibody, V domains shown)
VH: QVQLQQSGSELKKPGASVKVSCKASGYTFTNYGMNWVKQAPGQGLKWMGWINTYTGEPTYTHDFKGRFAFSLDTSVSTAYLQISSLKADDTAVYFCARGGFGSSYWYFDVWGQGSLVTVSS
VL: DIQLTQSPSSLSASVGDRVSITCKASQDVSIAVAWYQQKPGKAPKLLIYSAHYRYTGVPDRFSGSGSGTDFTLTISSLQPEDFAVYYCQQHYHTPLTFGAGTKVEIK
notes: Sacituzumab HC-LC pairing variant
For the molecule B5, the binding result in assay [6] is “binds”.

B6: MYT13250 (antibody, V domains shown)
VH: QVQLQQSGSELKKPGASVKVSCKASGYTFTNYGMNWVKQAPGQGLKWMGWINTYTGEPTHTDDFKGRFAFSLDTSVSTAYLQISSLKADDTAVYFCARGGFGSSYWYFDVWGQGSLVTVSS
VL: DIQLTQSPSSLSASVGDRVSITCKASQDVSIAVAWYQQKPGKAPKLLIYSAHYRYTGVPDRFSGSGSGTDFTLTISSLQPEDFAVYYCQQHYHTPLTFGAGTKVEIK
notes: as for B5
Turning to B6, the binding result in assay [6] is recorded as “binds”.

B7: MYT11687 (antibody, V domains shown)
VH: QVQLVQSGAEVKKPGASVKVSCKASGYTFTTAGMQWVRQAPGQGLEWMGWINTHSGVPKYAEDFKGRVTISADTSTSTAYLQLSSLKSEDTAVYYCARSGFGSSYWYFDVWGQGTLVTVSS
VL: DIQMTQSPSSLSASVGDRVTITCKASQDVSTAVHWYQQKPGKAPKLLIYSASYRYTGVPSRFSGSGSGTDFTLTISSLQPEDFAVYYCQQHYITPLTFGQGTKLEIK
notes: IgG from supernatant; His at LCV position 34; also called datopotamab variant L1 11
Take B7: the binding result in assay [7] is “binds”.

B8: MYT11688 (antibody, V domains shown)
VH: QVQLVQSGAEVKKPGASVKVSCKASGYTFTTAGMQWVRQAPGQGLEWMGWINTHSGVPKYAEDFKGRVTISADTSTSTAYLQLSSLKSEDTAVYYCARSGFGSSYWYFDVWGQGTLVTVSS
VL: DIQMTQSPSSLSASVGDRVTITCKASQDVSTAVAWYQQKPGKAPKLLIYHASYRYTGVPSRFSGSGSGTDFTLTISSLQPEDFAVYYCQQHYITPLTFGQGTKLEIK
notes: IgG from supernatant; His at LCV position 50; also called datopotamab variant L2 01
With B8, the binding result in assay [7] is listed as “binds”.

Values taken from patent US20260274985A1 (MYTHIC THERAPEUTICS, published 2026).
